Results as given in the supplement of paper PMC9170038.

Test system: MS2 coat protein
Assay: apparent KD of MS2 coat protein; designed switch direction (-1 OFF switch, 1 ON switch): -1; higher = weaker reporter binding
How it was run: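 Normalised cluster fluorescence was curve-fitted, and each design's median over clusters is its apparent KD. Before this, SNAP-549-labelled MS2 coat protein was titrated from 0.7 or 1.5 nM, doubling to 3 µM, over RNA switches transcribed on Illumina chips by stalled E. coli RNA polymerase. Titrations had no input, 200 uM small-molecule ligand, or an oligonucleotide input, and steps lasted 0.8–1.5 h (lowest) to 10–20 min (highest).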

[1] = input ligand: microRNA oligo, concentration not stated
[2] = Eterna round: R95, input ligand: microRNA oligo, concentration not stated
[3] = Eterna round: R95, input ligand: FMN 200 uM
[4] = Eterna round: R95, input ligand: none

| Sequence | apparent KD of MS2 coat protein (input ligand: FMN 200 uM) [µM] | apparent KD of MS2 coat protein [1] [µM] | apparent KD of MS2 coat protein (input ligand: none) [µM] | apparent KD of MS2 coat protein [2] [µM] | apparent KD of MS2 coat protein [3] [µM] | apparent KD of MS2 coat protein [4] [µM] |
| --- | --- | --- | --- | --- | --- | --- |
| GUCCUCAUGACAUGAGGAUCACCCAUGUAUUAUUUGGUAACUGAGGAUAUACUUUUAAUGUUUAUGUAGAAGGCAGAUACGGUU [JR_ExcNG3_Sub018] (Eterna round: R96, puzzle: Exclusion NG 3) | 0.197 | 0.053 | 0.0623 | – | – | – |
| UAAAACAGAGGAUAUCGCUUGGUAAACAUGAGGAUCACCCAUGUGGUCUCGGUGGAUACCCGAGAAGGCUGAGCGU [Xeraisbece] (Eterna round: R97, puzzle: Exclusion 5) | 0.0195 | – | 0.019 | – | – | – |
| UAGAUGGGAGGAUAUACGUAGUUGCAGGUUCGUGUGGUGCUACAUGAGGAUCACCCAUGUAGAAGGCCCGUCUU [JL-ex2-2.30 Mayanne mod] (puzzle: Exclusion 2) | – | – | – | 0.0134 | – | – |
| CGAGCUCAUGUGAGGAUAUACCUAUGGAUACAUAGGUAGAAGGCACAUGAGGAUCACCCAUGUCCUAGAGCUCG [jl-bmx4-4.58] (Eterna round: R97, puzzle: Brourd's mod of Exclusion 4) | 0.821 | – | 0.138 | – | – | – |
| AAGAAACAUGAGGAUCACCCAUGUGAGGAUAUGAGUAAGAAAAGAAAAGAAAGAAGAAUCAGAAGGCACAAAGG [salish99-ex1_r3_048] (puzzle: Exclusion 1) | – | – | – | 0.0383 | 0.0552 | 0.0383 |
| GUGAAACAUGAGGAUCACCCAUGUCAGGAUAUGCAUCCAGUUCACCUAUAAAGACGGUGUAGAAGGGACAAUAA [Eternabot (Original) Solution 7] (Eterna round: R97, puzzle: Exclusion 1) | 0.0224 | – | 0.0213 | – | – | – |
| GCUCAGAUGACAGGAUAUCACGCCUGGCAGAUGGGCGACAUGAGGAUCACCCAUGUCCAGCACGAUGAGAAGGGUUAUCGGGCG [Ririorti] (Eterna round: R96, puzzle: Exclusion NG 2) | 0.195 | 0.0942 | 0.0964 | – | – | – |
| GAAUAGUGAGGAUAUACUUGCAGUGUACCUCGGGUGAUCUCACUUGAGGAUCACCCAAGUAGAAGGCGCGAGGG [EX2 #22] (Eterna round: R97, puzzle: Exclusion 2) | 0.0208 | – | 0.00903 | – | – | – |
| GGUGCGUAUGUGAGGAUAUGCUGGUCCUUGGCUCGGCAGAAGGCACAUGAGGAUCACCCAUGUGGUGUCGUACA [salish99_Bmod_ex4_072] (puzzle: Brourd's mod of Exclusion 4) | – | – | – | 0.0735 | – | – |
| GAGCCAUCGUGAGAUGGCUAACAUACAUGAGGAUCACCCAUGUAGGAUAUCGAUUGCUUUGCAGUCGAGAAGGACAUGUUUAAU [JL ENG3 3.96] (Eterna round: R96, puzzle: Exclusion NG 3) | – | 0.0191 | – | – | – | – |
| CUUAGACAUGAGGAUCACCCAUGUGAGGAUAUGAUACAAUCAUACUAACAUAAUCACAUCAGAAGGCACAUAUG [Mat - Mod of JL D68] (puzzle: Exclusion 1) | – | – | – | 0.0558 | 0.0346 | 0.0524 |
| UAUCCUCAAGUGAGGAUAUGACGGUCAAGACGCGUUCAGAAGGCACAUGAGGAUCACCCAUGUGAUAAAGGAAU [Eternabot (L2) Solution 38] (Eterna round: R97, puzzle: Brourd's mod of Exclusion 4) | 0.0917 | – | 0.0206 | – | – | – |
| AAAUCGGUAGAGGAUAUUGUACAGGAAACGGUGCGAGAAGGCUACACAUGAGGAUCACCCAUGUUAAAUAGCGA [EX6 #55] (Eterna round: R97, puzzle: Exclusion 6) | 0.017 | – | 0.0158 | – | – | – |
| AGACUGCUGCGAGGAUAUACAUGAGGAUCACCCAUGUUUUCCUGUGAGGCAUAGCCUCACAGGAUGUAGAAGGCGCAGUAGUCA [Mat - Exclusion NG 2 - Mod of JL - D30] (Eterna round: R96, puzzle: Exclusion NG 2) | 0.0138 | 0.0112 | 0.0119 | – | – | – |
| UUGUUAUAUGUAGGAUAUGCAUAUUAUUAUUGUGCAGAAGGACAUGAGGAUCACCCAUGUAUAUUAUUAUUAUAUAUUAUAUAU [Title] (Eterna round: R96, puzzle: Exclusion NG 1) | – | 0.0261 | – | – | – | – |
| UGUUGUUACGCAGGAUAUGAGGAUCACCCAUAUAAGGAUAUCGAAAGAGAAGGUCUGAGGAUUACCCAGAAGGGCGGGUUAACA [pwkr exNG2 2xF5 2xFMN.29] (Eterna round: R96, puzzle: Exclusion NG 2) | 0.227 | 0.0653 | 0.115 | – | – | – |
| CUGAUGUCAGGAUAUCAGAAAAGGUGCGAGGACGCACCAAAUGAGAAGGGACAUGAGGAUCACCCAUGUAAAAC [Inbeenen] (puzzle: Exclusion 4) | – | – | – | 0.0192 | – | – |

| Sequence | apparent KD of MS2 coat protein (input ligand: FMN 200 uM) [µM] | apparent KD of MS2 coat protein [1] [µM] | apparent KD of MS2 coat protein (input ligand: none) [µM] | apparent KD of MS2 coat protein [2] [µM] | apparent KD of MS2 coat protein [3] [µM] | apparent KD of MS2 coat protein [4] [µM] |
| --- | --- | --- | --- | --- | --- | --- |
| UAUUAUCAAGCUAGAUCCCACAUGAGGAUCACCCAUGUGCUCGUCUUAUUUCCGGAAUUAUUGGGCUCUCGUCUUUU [JR_STOV1_Sub092] (Eterna round: R97, puzzle: Sensor, turn-off variant 1) | 0.235 | – | 0.238 | – | – | – |
| CCUAUGUGAGGAUAUGGUGUUGGCCACAAGGAAAAGCUCCUCCAGAAGGCACAUGAGGAUCACCCAUGUCGUGG [Jolly's Folly 25 - Jieux - Exclusion 4] (Eterna round: R96, puzzle: Exclusion 4) | 0.212 | 0.0482 | 0.0611 | – | – | – |
| GCCCGGGCAGGAUAUACAAUGAUCGUGAGAAAUCGUGAUCGACAUGAGGAUCACCCAUGUAGAAGGGCCCGGGC [-34.5, -32.3 kcal, A 28% 2] (Eterna round: R97, puzzle: Exclusion 2) | 0.116 | – | 0.0505 | – | – | – |
| UCCGGACAUGAGGAUCACCCAUGUCAGGAUAUACCCGAGGCAGCAAACACGCUAGCCAGUAGAAGGGACAUGGU [Geenma] (Eterna round: R97, puzzle: Exclusion 1) | 0.0183 | – | 0.0207 | – | – | – |
| UUAGUAUAGCAAGGAUAUGUUUAUGUAUAGUUGCCUCUUACAUGAGGAUCACCCAUGUUUAACUUACAGAAGGUGCAAUGAUUU [JR_ExcNG2_Sub033] (Eterna round: R96, puzzle: Exclusion NG 2) | 0.279 | 0.108 | 0.137 | – | – | – |
| CUCCUGUGAGGAUAUGUAGGCCGCCCGGUCAGCCGAGCGAGACAGAAGGCACAUGAGGAUCACCCAUGUGACUC [EX4 B.13] (Eterna round: R97, puzzle: Exclusion 4) | 0.0422 | – | 0.0166 | – | – | – |
| UUAUUAUAUGUAGGAUAUGCGUAUUAUUGUUAUGCAGAAGGACAUGAGGAUCACCCAUGUAUAUUAUUGUUAUAUAUUAUAUAU [Title] (Eterna round: R96, puzzle: Exclusion NG 1) | 0.0502 | 0.0193 | 0.0293 | – | – | – |
| UGCAGACGAGGAUAUAAACGAUAUAACAUGAGGAUCACCCAUGUACGAUCGAAUGAUCGUUUAGAAGGCGUCUGCA [E5/10-A1] (Eterna round: R97, puzzle: Exclusion 5) | 0.0166 | – | 0.0157 | – | – | – |
| UAGUAUCUUCAGGAUAUCAGUGGAAAACACGUAUGAGAAGGGAAGACAUGAGGAUCACCCAUGUAAAGGGUCCG [BotMod 11 - Jieux - Exclusion 6] (Eterna round: R97, puzzle: Exclusion 6) | 0.579 | – | 0.203 | – | – | – |
| CCAACUAAUUAGGAUAUUAAGGACAUCAGUAAGUAAGAAGGGAUUACAUGAGGAUCACCCAUGUGGUCCUCGGG [Eternabot (L2) Solution 57] (Eterna round: R97, puzzle: Exclusion 6) | 0.226 | – | 0.147 | – | – | – |
| AAGGAUAGAGGAUAUACAUAGAUACAGAUUCAUGUAGUCCUACAUGAGGAUCACCCAUGUAGAAGGCUAUCCUA [Fiskers Ex 2 - 12] (Eterna round: R96, puzzle: Exclusion 2) | 0.103 | 0.0143 | 0.0187 | – | – | – |
| UACAUGAGGAUCACCCAUGUUUUGUCGUGUAUGGUAUUUAUCUAGGAUAUCAAUUUAGUCAUUUAUGAGAAGGAGAAUAUUAAU [JMF's solution 74] (Eterna round: R96, puzzle: Exclusion NG 3) | 0.0355 | 0.0286 | 0.0384 | – | – | – |
| AAGUACCGUCACGAAAGUGAUGGUACAACAAGCAAAUGUACAUGAGGAUCACCCAUGUCCUCAAUUGCUCGUCUUAU [Sensor 3 - 57] (puzzle: Sensor v3, turn-off variant 2) | – | – | – | 0.176 | 0.0882 | 0.0928 |
| UCGUGUAUAGAGGAUAUAUUAAUAUUUAAAACAAUAGAAGGCUAAACAUGAGGAUCACCCAUGUAUUUGGUUUU [JR_Ex6_Sub054] (Eterna round: R97, puzzle: Exclusion 6) | 0.0584 | – | 0.0209 | – | – | – |
| CAGUACUGAGGAUAUACAUGAGGAUCACCCAUGUGAUUUGGUGCACGCGUACGUGUACGUAGAAGGCAGUACUG [JL 3.27 m5] (Eterna round: R97, puzzle: Exclusion 3) | 0.363 | – | 0.0242 | – | – | – |
| UUUAUGCUAGGAUAUGCACCCUCGAACAUGAGGAUCACCCAUGUACAAUAAACGCAUGAAGCAGAAGGAGCUUCCA [EX5 A.20] (Eterna round: R97, puzzle: Exclusion 5) | 0.0564 | – | 0.0371 | – | – | – |
| ACAUGAGGAUCACCCAUGUGACCACGAUGGCUGAUGUAGAGCUAGGAUAUGAGUGAAUAUCUAUCUCAGAAGGAGCUUGACUGG [Deportation 49 - Jieux - Exclusion NG 3] (Eterna round: R96, puzzle: Exclusion NG 3) | 0.0257 | 0.0164 | 0.0262 | – | – | – |
